Columns and labels:
Test in all cases: Kinase Profiling Assay
Format in all cases: biochemical
Settings in all cases: 100 μM
Yes (h) = Yes (h) (Homo sapiens, UniProt P07947)
Procedure, shortened: (§1)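 Kinase inhibition by MK2 inhibitory peptides was profiled radiometrically, with substrate phosphorylation from labeled ATP read by scintillation after capture on a charged filter. Values are relative to 100% activity and measured in duplicate.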

IGF-1R (h), activated = molecular target: T1, IGF-1R (h), activated (Homo sapiens, UniProt P08069)
T1 construct: purchased Millipore
Procedure, shortened: as §1

NEK11 (h) = molecular target: T2, NEK11 (h) (Homo sapiens, UniProt Q8NG66)
T2 construct: purchased Millipore
T2 sequence (Q8NG66 1-645): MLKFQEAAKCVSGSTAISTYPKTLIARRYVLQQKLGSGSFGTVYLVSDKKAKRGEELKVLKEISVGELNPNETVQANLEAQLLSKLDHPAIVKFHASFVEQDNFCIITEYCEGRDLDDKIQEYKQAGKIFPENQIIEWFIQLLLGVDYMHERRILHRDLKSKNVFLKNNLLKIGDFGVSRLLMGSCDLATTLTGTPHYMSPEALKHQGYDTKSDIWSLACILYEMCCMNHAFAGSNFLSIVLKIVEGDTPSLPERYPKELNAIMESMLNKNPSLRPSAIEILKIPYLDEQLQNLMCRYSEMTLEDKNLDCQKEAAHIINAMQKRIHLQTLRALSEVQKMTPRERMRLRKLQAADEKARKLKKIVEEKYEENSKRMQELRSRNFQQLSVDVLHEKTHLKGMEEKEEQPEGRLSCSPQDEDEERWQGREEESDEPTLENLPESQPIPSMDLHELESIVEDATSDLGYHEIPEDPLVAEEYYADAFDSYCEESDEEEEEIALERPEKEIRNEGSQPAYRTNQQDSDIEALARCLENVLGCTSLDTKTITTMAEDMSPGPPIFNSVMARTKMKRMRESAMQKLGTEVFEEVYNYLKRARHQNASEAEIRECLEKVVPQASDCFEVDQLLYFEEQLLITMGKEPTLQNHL
Procedure, shortened: as §1

mTOR (h) = molecular target: T3, mTOR (h) (Homo sapiens, UniProt P42345)
T3 construct: purchased Millipore
Procedure, shortened: as §1

MELK (h) = MELK (h) (Homo sapiens, UniProt Q14680)
Procedure, shortened: as §1

EphA7 (h) = EphA7 (h) (Homo sapiens, UniProt Q15375)
Procedure, shortened: as §1

CDK6/cyclinD3 (h) = molecular target: T4, CDK6/cyclinD3 (h) (Homo sapiens, UniProt Q00534)
T4 construct: purchased Millipore
Procedure, shortened: as §1

MAPKAP-K3 (h) = MAPKAP-K3 (h) (Homo sapiens, UniProt Q16644)
Procedure, shortened: as §1

cKit(D816V) (h) = molecular target: T5, cKit(D816V) (h) (Homo sapiens, UniProt P10721, D816V)
T5 construct: purchased Millipore
Procedure, shortened: as §1

ALK (h) = ALK (h) (Homo sapiens, UniProt Q9UM73)
Procedure, shortened: as §1

mTOR/FKBP12 (h) = molecular target: T6, mTOR/FKBP12 (h) (Homo sapiens, UniProt P42345)
T6 construct: purchased Millipore
Procedure, shortened: as §1

ULK3 (h) = molecular target: T7, ULK3 (h) (Homo sapiens, UniProt Q6PHR2)
T7 sequence (Q6PHR2 1-472): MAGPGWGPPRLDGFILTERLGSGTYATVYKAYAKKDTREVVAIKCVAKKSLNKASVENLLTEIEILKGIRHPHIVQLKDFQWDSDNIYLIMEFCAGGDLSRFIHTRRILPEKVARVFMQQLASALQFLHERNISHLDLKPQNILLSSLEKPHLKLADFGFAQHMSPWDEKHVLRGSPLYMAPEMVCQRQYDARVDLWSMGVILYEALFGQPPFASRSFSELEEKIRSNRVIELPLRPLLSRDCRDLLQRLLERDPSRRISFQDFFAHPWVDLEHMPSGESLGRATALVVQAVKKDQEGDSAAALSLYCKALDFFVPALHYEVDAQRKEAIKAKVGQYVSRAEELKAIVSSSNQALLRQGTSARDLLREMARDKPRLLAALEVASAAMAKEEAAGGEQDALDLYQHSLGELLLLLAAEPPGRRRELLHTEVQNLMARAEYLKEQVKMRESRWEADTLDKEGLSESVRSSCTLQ
Procedure, shortened: as §1

PDGFRβ (h) = molecular target: T8, PDGFRβ (h) (Homo sapiens, UniProt P09619)
T8 construct: purchased Millipore
Procedure, shortened: as §1

Fgr (h) = Fgr (h) (Homo sapiens, UniProt P09769)
Procedure, shortened: as §1

NEK6 (h) = molecular target: T9, NEK6 (h) (Homo sapiens, UniProt Q9HC98)
T9 construct: purchased Millipore
Procedure, shortened: as §1

cSRC (h) = molecular target: T10, cSRC (h) (Homo sapiens, UniProt P12931)
T10 construct: purchased Millipore
Procedure, shortened: as §1

EphA4 (h) = EphA4 (h) (Homo sapiens, UniProt P54764)
Procedure, shortened: as §1

IR (h) = molecular target: T11, IR (h) (Homo sapiens, UniProt P06213)
T11 construct: purchased Millipore
Procedure, shortened: as §1

Met(Y1248H) (h) = Met(Y1248H) (h) (Homo sapiens, UniProt P08581, Y1230H)
Procedure, shortened: as §1

Sequence of MAPKAP-K3 (h) (Q16644 whole entry): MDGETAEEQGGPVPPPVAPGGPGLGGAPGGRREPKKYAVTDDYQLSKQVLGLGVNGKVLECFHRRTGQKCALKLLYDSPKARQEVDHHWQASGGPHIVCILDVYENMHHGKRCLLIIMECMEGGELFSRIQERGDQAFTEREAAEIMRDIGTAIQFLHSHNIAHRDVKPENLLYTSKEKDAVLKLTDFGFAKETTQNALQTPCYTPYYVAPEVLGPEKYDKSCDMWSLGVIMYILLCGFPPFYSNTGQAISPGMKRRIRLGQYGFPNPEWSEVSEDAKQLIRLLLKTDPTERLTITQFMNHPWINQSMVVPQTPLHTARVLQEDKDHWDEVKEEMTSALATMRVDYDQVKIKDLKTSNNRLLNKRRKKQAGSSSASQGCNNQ
Sequence of Yes (h) (P07947 whole entry): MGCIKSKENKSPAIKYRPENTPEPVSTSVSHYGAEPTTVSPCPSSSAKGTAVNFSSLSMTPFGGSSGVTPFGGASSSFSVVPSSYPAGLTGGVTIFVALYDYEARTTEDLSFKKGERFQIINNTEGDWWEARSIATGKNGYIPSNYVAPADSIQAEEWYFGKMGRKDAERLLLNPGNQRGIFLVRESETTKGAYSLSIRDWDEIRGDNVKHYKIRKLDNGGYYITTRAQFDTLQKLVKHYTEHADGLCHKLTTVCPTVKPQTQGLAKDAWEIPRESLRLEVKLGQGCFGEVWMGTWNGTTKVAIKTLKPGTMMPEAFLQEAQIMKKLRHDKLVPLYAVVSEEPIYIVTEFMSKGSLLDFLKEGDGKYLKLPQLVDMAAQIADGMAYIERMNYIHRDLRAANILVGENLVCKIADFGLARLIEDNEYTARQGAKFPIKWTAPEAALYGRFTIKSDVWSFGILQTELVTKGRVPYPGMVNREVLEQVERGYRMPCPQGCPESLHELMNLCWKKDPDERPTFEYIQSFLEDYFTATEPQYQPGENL
Sequence of EphA7 (h) (Q15375 28-998): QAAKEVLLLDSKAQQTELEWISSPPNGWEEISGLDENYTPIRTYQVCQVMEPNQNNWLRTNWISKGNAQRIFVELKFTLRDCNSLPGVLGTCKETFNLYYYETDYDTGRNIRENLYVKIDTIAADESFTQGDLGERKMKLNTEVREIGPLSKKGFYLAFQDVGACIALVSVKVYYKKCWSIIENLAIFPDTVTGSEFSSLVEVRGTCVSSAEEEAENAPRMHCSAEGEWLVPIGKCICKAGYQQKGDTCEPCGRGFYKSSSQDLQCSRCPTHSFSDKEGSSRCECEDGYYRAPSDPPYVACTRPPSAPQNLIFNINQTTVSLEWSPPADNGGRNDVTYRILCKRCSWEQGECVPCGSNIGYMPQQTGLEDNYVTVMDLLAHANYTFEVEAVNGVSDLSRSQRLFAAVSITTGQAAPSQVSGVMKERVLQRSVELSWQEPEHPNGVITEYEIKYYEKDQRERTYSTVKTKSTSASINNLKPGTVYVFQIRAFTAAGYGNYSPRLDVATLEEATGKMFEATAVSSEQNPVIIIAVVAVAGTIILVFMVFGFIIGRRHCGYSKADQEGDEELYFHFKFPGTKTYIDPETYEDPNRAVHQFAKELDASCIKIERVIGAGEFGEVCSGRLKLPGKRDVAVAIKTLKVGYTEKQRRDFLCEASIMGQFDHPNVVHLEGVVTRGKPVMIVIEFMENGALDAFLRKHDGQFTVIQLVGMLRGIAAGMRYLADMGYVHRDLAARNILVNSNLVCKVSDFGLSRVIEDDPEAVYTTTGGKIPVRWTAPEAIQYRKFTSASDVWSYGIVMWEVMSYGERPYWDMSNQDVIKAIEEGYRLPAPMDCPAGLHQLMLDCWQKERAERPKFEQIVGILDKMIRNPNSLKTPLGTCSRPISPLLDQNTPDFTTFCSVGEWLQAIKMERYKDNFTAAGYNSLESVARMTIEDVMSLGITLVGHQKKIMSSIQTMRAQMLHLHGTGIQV
Sequence of EphA4 (h) (P54764 20-986): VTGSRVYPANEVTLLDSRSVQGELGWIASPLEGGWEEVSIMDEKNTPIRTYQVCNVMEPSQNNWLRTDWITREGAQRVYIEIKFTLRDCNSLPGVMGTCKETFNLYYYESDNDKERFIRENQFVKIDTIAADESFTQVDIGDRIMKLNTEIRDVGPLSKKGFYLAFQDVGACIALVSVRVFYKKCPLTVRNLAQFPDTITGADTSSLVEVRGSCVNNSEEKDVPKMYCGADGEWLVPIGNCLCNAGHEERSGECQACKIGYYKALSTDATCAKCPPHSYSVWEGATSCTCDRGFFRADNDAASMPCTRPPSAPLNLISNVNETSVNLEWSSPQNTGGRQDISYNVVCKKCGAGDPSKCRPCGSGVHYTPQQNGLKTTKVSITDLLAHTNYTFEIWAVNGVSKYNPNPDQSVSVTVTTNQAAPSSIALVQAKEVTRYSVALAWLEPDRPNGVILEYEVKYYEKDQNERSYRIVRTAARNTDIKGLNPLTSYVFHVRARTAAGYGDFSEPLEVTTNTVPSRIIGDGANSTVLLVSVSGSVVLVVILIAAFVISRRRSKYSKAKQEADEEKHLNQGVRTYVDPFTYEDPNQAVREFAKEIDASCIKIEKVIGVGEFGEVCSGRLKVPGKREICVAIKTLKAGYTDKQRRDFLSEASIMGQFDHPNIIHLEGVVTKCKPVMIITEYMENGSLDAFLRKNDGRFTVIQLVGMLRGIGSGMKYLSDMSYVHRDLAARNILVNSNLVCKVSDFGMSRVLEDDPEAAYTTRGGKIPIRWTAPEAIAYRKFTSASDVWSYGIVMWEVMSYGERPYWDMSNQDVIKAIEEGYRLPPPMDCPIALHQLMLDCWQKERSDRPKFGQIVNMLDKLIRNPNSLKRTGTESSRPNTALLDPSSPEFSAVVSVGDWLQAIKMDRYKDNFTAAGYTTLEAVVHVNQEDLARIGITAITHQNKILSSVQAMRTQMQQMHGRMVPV
T1 sequence (P08069 959-1367 limits assumed): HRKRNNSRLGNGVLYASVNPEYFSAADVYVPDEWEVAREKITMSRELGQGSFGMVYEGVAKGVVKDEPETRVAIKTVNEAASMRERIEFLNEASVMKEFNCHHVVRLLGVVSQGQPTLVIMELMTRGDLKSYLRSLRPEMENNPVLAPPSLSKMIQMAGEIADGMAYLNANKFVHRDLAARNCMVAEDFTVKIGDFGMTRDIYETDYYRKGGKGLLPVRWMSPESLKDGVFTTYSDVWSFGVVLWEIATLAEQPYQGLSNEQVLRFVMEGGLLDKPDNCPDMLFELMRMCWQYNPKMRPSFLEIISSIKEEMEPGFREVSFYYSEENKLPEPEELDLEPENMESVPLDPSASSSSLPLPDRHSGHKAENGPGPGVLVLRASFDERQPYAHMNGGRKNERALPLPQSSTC
T4 sequence (Q00534 whole entry): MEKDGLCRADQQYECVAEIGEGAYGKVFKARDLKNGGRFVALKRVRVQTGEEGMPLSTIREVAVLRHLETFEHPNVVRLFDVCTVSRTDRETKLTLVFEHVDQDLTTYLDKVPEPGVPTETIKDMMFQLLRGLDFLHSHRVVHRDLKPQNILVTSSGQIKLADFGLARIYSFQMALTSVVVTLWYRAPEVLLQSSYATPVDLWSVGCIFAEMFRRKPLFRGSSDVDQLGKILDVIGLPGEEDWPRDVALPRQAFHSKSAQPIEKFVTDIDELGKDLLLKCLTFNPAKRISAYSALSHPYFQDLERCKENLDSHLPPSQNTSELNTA
T4 sequence (P30281 whole entry partner): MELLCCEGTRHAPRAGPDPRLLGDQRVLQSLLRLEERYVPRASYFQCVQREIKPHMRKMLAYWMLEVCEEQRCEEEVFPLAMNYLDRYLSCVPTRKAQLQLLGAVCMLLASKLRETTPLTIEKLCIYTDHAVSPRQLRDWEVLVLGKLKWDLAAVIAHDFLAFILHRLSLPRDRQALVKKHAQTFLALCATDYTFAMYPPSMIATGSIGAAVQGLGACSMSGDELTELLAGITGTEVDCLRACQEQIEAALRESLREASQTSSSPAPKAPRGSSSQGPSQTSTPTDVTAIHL
T9 sequence (Q9HC98 whole entry): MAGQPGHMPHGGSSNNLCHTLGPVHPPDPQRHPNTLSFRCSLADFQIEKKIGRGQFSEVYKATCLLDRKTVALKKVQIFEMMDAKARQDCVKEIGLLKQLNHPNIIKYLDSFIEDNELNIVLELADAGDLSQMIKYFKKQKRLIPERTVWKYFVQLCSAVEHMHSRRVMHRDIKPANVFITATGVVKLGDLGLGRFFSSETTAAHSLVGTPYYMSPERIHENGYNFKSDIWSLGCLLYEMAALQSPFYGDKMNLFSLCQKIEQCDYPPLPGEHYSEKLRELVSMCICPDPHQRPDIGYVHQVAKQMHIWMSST
Sequence of MELK (h) (Q14680 whole entry): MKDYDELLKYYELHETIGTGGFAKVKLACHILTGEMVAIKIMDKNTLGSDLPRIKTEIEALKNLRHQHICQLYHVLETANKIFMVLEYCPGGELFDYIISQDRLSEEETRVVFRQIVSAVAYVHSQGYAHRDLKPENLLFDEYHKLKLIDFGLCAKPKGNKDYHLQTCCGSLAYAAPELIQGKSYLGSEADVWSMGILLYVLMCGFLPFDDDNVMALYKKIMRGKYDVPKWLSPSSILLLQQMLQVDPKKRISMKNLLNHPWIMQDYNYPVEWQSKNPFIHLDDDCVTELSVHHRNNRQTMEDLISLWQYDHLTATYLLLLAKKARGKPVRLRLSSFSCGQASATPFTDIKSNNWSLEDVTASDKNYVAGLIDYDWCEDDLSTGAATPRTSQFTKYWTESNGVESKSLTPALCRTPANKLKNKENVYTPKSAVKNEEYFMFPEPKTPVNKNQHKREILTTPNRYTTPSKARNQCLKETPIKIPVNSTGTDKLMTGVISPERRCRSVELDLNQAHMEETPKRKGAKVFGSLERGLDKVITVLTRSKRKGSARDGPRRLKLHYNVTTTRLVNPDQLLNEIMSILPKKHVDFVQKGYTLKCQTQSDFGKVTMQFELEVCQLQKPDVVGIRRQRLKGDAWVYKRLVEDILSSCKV

Row | Sequence | % activity (Yes (h)) [%] | % activity (IGF-1R (h), activated) [%] | % activity (NEK11 (h)) [%] | % activity (mTOR (h)) [%] | % activity (MELK (h)) [%] | % activity (EphA7 (h)) [%] | % activity (CDK6/cyclinD3 (h)) [%] | % activity (MAPKAP-K3 (h)) [%] | % activity (cKit(D816V) (h)) [%] | % activity (ALK (h)) [%] | % activity (mTOR/FKBP12 (h)) [%] | % activity (ULK3 (h)) [%] | % activity (PDGFRβ (h)) [%] | % activity (Fgr (h)) [%] | % activity (NEK6 (h)) [%] | % activity (cSRC (h)) [%] | % activity (EphA4 (h)) [%] | % activity (IR (h)) [%] | % activity (Met(Y1248H) (h)) [%]
1 | FAKLAARLYRKALARQLGVAA [MMI-0300] | 67 | 80 | 53 | 91 | 16 | 159 | 86 | 3 | 60 | 19 | 145 | 167 | 81 | 60 | 82 | 26 | 88 | 96 | 
2 | HRRIKAWLKKIKALARQLGVAA (Mammalian) [MMI-0500] |  | 45 | 2 | 135 | 0 | 189 | 23 | 9 | 30 | 12 | 140 | 177 | 40 |  | 49 | 30 | 48 | 95 | 126
3 | KAFAKLAARLYRKALARQLGVAA [MMI-0400] | 14 | 77 | 33 | 93 | 17 | 222 | 85 | 7 | 35 | 16 | 125 | 147 | 53 | 47 | 85 | 14 | 65 | 85 | 63
4 | YARAAARQARAKALNRQLGVA (Mammalian) [MMI-0200] | 93 | 94 | 95 | 110 | 59 | 220 | 100 | 39 | 118 | 95 | 118 | 164 | 137 | 71 | 98 | 32 | 127 | 90 | 153
